From paper PMC10023680 (2023)

B1: RhoG (residues 1-184) (domain or fragment)
chain: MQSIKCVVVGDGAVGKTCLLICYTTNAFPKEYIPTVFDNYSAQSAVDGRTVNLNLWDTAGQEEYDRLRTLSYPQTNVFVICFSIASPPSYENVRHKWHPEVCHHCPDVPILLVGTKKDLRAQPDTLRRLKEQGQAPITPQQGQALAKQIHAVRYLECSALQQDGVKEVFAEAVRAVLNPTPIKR

What was measured:
Experiment in all cases: SPR
RhoG (residues 1-184) = molecular target: B1
[1] = molecular target: GST-tagged ELMO1-RBD (residues 1-113) K20E (human, UniProt Q92556 1-113, K20E)
[2] = molecular target: GST-tagged ELMO1-RBD (residues 1-113) Y18A (human, UniProt Q92556 1-113, Y18A)

RhoG (residues 1-184), sequence (P84095 1-184): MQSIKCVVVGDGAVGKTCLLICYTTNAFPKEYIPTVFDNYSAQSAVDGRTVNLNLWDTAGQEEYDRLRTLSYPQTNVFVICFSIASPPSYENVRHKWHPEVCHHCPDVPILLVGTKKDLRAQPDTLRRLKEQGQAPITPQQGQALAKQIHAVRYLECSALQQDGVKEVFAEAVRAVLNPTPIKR

Row | Kd (RhoG (residues 1-184)) [µM] | Kd [1] [µM] | Kd [2] [µM] | Binder
1 | 8.4 |  |  | GST-tagged ELMO1-RBD (residues 1-113), wild-type (domain or fragment) MPPPADIVKVAIEWPGAYPKLMEIDQKKPLSAIIKEVCDGWSLANHEYFALQHADSSNFYITEKNRNEIKNGTILRLTTSPAQNAQQLHERIQSSSMDAKLEALKDLASLSRD
2 |  | 18.2 | 19.3 | B1
